B1: ITPRIPL1-RBD recombinant protein (human ITPRIPL1 extracellular domain, 25-103 amino acids, C-terminal 6x-His and Myc tags, Cusabio, from yeast) (ligand)
chain: HPLMVSDRMDLDTLARSRQLEKRMSEEMRLLEMEFEERKRAAEQRQKAENFWTGDTSSDQLVLGKKDMGWPFQADGQEG
notes: also called IT1-RBD protein; ITPRIPL1-RBD-6x-His recombinant protein; not shown: 6x-His and Myc tags at the C terminus
B2: monoclonal antibody 13B7A6H3 (antibody, mouse IgG1, kappa, V domains shown)
VH: QVQLQQSGPELVKPGASVRMSCKTSGYTFTDYVISWVKQRPGQGLEWIGEIFPRTGSTYYNENFKATATLTADKSSNTAYMQLSSLTSEDSAAYFCAFITSVDWAMEYWGQGTSVTVSS
VL: DVVMTQTPLSLPVSLGDQASISCRSSESLVNSKGNTHLHWYLQKPGQSPKLLIYKVSNRFSGVPDRFSGSGSGTDFTLKISRVEAEDLGVYFCSQSTHAPYTFGGGTKLEIKR
notes: Mouse hybridoma monoclonal; also called 13B7A6H3 monoclonal antibody

Key:
[1] = biological target: T1, CD3E-human Fc protein (Sino Biological) (UniProt P07766 23-126); experiment: BLI (Octet)
T1 chain: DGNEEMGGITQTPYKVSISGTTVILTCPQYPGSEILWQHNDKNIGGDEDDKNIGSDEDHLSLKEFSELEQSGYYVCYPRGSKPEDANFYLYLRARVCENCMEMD

[2] = biological target: T2, CD3ε (Met1-Asp126) protein with hFc tag (Sino Biological) (UniProt P07766 22-126); experiment: ELISA
T2 chain: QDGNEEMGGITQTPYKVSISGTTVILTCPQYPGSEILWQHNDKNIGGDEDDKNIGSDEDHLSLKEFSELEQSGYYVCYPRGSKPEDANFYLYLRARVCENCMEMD

[3] = biological target: T3, HA-tagged CD3ε (expressed from pcDNA3.1 in transfected HCT116 cells) (human, UniProt P07766 23-207); experiment: flow cytometry on HCT116-CD3ε cells, 1-4 µg/ml protein, anti-6x-His-FITC
T3 construct: whole, on cells; also called CD3ε-HA; CD3E-HA; not shown: HA tag

[4] = biological target: T4, NRP2 extracellular domain protein with hFc (Sino Biological) (UniProt O60462 21-864); experiment: ELISA
T4 chain: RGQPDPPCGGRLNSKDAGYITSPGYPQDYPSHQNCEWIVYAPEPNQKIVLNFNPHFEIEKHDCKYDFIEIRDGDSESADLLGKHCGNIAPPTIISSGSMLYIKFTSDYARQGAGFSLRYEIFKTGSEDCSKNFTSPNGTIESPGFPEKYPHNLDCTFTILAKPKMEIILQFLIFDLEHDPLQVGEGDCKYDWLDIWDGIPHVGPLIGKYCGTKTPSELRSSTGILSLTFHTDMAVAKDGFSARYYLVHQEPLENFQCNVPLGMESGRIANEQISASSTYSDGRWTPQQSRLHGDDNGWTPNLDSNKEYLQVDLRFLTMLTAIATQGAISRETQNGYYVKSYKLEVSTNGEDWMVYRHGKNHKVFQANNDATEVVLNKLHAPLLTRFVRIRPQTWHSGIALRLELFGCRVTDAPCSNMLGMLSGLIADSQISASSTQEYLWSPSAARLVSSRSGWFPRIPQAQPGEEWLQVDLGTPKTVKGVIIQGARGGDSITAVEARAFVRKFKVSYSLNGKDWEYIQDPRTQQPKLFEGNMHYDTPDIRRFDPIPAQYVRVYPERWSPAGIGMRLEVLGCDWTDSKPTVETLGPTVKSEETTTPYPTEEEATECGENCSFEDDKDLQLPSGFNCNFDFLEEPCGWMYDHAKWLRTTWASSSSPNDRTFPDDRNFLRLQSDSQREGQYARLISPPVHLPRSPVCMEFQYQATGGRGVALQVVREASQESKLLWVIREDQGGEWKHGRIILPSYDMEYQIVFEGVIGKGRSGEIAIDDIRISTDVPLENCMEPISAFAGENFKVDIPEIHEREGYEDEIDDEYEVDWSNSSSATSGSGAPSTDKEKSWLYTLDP

ITPRIPL1 P8 polypeptide = biological target: T5, ITPRIPL1 P8 polypeptide (human); experiment: ELISA, peptides coated at 1 µg/ml, antibody at 1 µg/ml
T5 construct: also called human ITPRIPL1 P8 polypeptide; polypeptide segment P8
T5 peptide: RLLEMEFEERKRAAE

[5] = biological target: T6, P8 polypeptide with site 6 (E) mutated to alanine (human); experiment: ELISA, peptide coated at 1 µg/ml, antibody at 1 µg/ml
T6 construct: also called P8 E6A
T6 peptide: RLLEMAFEERKRAAE

[6] = biological target: T7, P8 polypeptide with site 12 (R) mutated to alanine (human); experiment: as above
T7 construct: also called P8 R12A
T7 peptide: RLLEMEFEERKAAAE

[7] = biological target: T8, P8 polypeptide with site 8 (E) mutated to alanine (human); experiment: as above
T8 construct: also called P8 E8A
T8 peptide: RLLEMEFAERKRAAE

[8] = biological target: T9, P8 polypeptide with site 5 (M) mutated to alanine (human); experiment: as above
T9 construct: also called P8 M5A
T9 peptide: RLLEAEFEERKRAAE

[9] = biological target: T10, P8 polypeptide with site 2 (L) mutated to alanine (human); experiment: as above
T10 construct: also called P8 L2A
T10 peptide: RALEMEFEERKRAAE

[10] = biological target: T11, P8 polypeptide with site 1 (R) mutated to alanine (human); experiment: as above
T11 construct: also called P8 R1A
T11 peptide: ALLEMEFEERKRAAE

[11] = biological target: T12, P8 polypeptide with site 15 (E) mutated to alanine (human); experiment: as above
T12 construct: also called P8 E15A
T12 peptide: RLLEMEFEERKRAAA

[12] = biological target: T13, P8 polypeptide with site 9 (E) mutated to alanine (human); experiment: as above
T13 construct: also called P8 E9A
T13 peptide: RLLEMEFEARKRAAE

[13] = biological target: T14, P8 polypeptide with site 11 (K) mutated to alanine (human); experiment: as above
T14 construct: also called P8 K11A
T14 peptide: RLLEMEFEERARAAE

[14] = biological target: T15, P8 polypeptide with site 4 (E) mutated to alanine (human); experiment: as above
T15 construct: also called P8 E4A
T15 peptide: RLLAMEFEERKRAAE

[15] = biological target: T16, P8 polypeptide with site 7 (F) mutated to alanine (human); experiment: ELISA, peptide coated at 1 µg/ml
T16 construct: also called P8 F7A
T16 peptide: RLLEMEAEERKRAAE

[16] = biological target: T17, P8 polypeptide with site 10 (R) mutated to alanine (human); experiment: ELISA, peptide coated at 1 µg/ml
T17 construct: also called P8 R10A
T17 peptide: RLLEMEFEEAKRAAE

[17] = biological target: T18, P8 polypeptide with site 3 (L) mutated to alanine (human); experiment: ELISA, peptide coated at 1 µg/ml
T18 construct: also called P8 L3A
T18 peptide: RLAEMEFEERKRAAE

Row | Binder | Kd [1] [nM] | EC50 [2] [µg/mL] | binding result [3] | EC50 [4] [µg/mL] | binding result (ITPRIPL1 P8 polypeptide) | binding result [5] | binding result [6] | binding result [7] | binding result [8] | binding result [9] | binding result [10] | binding result [11] | binding result [12] | binding result [13] | binding result [14] | binding result [15] | binding result [16] | binding result [17]
1 | B1 | 318 | 0.255 | binds | 0.418 | – | – | – | – | – | – | – | – | – | – | – | – | – | –
2 | B2 | – | – | – | – | binds | binds | binds | binds | binds | binds | binds | binds | binds | binds | binds | no binding (tested: 1 µg/ml) | no binding (tested: 1 µg/ml) | no binding (tested: 1 µg/ml)

— US20240034776A1 (FUDAN UNIVERSITY, published 2024)
